Laboratory results reported in patent US20190300618A1 (Merck Sharp & Dohme, published 2019).
Positions count from the first letter of the chain named.

How the values were obtained:
Experiment in all cases: flow cytometry, CHO-K1; sub-column 2 of 2
W90A = target: T1, W90A
T1 construct: also called hCD27 W90A
T1 receptor: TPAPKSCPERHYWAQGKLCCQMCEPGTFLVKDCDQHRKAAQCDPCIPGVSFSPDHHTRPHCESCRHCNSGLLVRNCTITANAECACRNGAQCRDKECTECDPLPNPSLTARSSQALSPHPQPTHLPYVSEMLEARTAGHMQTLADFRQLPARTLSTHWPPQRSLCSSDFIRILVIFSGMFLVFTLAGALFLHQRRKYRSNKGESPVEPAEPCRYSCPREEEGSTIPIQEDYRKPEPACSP

G89A = target: T2, G89A
T2 construct: also called hCD27 G89A
T2 receptor: T1 receptor with G89A, A90W

K17A = target: T3, K17A
T3 construct: also called hCD27 K17A
T3 receptor: T1 receptor with K17A, A90W

S63A = target: T4, S63A
T4 construct: also called hCD27 S63A
T4 receptor: T1 receptor with S63A, A90W

K38A = target: T5, K38A
T5 construct: also called hCD27 K38A
T5 receptor: T1 receptor with K38A, A90W

P44A = target: T6, P44A
T6 construct: also called hCD27 P44A
T6 receptor: T1 receptor with P44A, A90W

D32A = target: T7, D32A
T7 construct: also called hCD27 D32A
T7 receptor: T1 receptor with D32A, A90W

V49A = target: T8, V49A
T8 construct: also called hCD27 V49A
T8 receptor: T1 receptor with V49A, A90W

H60A = target: T9, H60A
T9 construct: also called hCD27 H60A
T9 receptor: T1 receptor with H60A, A90W

R93A = target: T10, R93A
T10 construct: also called hCD27 R93A
T10 receptor: T1 receptor with A90W, R93A

For 1A4 (mouse IgG1) (antibody), the % of WT hCD27 binding (geo mean FITC) (W90A) was 96.4%, the % of WT hCD27 binding (geo mean FITC) (G89A) was 81.8% and the % of WT hCD27 binding (geo mean FITC) (K17A) was 6.8%. The % of WT hCD27 binding (geo mean FITC) (S63A) was 163%, the % of WT hCD27 binding (geo mean FITC) (K38A) was 97.7% and the % of WT hCD27 binding (geo mean FITC) (P44A) was 90.5%. It also gave a % of WT hCD27 binding (geo mean FITC) (D32A) of 8.7%, a % of WT hCD27 binding (geo mean FITC) (V49A) of 97% and a % of WT hCD27 binding (geo mean FITC) (H60A) of 120%. For the same molecule, the % of WT hCD27 binding (geo mean FITC) (R93A) was 91.1%.

9F4 (mouse IgG2a) (antibody) gave a % of WT hCD27 binding (geo mean FITC) (W90A) of 85.7%, a % of WT hCD27 binding (geo mean FITC) (G89A) of 77.5% and a % of WT hCD27 binding (geo mean FITC) (K17A) of 106%. For the same molecule, the % of WT hCD27 binding (geo mean FITC) (S63A) was 149%, the % of WT hCD27 binding (geo mean FITC) (K38A) was 31.6% and the % of WT hCD27 binding (geo mean FITC) (P44A) was 91.7%. For the same molecule, the % of WT hCD27 binding (geo mean FITC) (D32A) was 66.3%, the % of WT hCD27 binding (geo mean FITC) (V49A) was 92.1% and the % of WT hCD27 binding (geo mean FITC) (H60A) was 126%. It also gave a % of WT hCD27 binding (geo mean FITC) (R93A) of 91.1%.

B1: Antibody hCD27.131A (mouse parental 131A) (antibody, V domains shown)
VH: QIQLVQSGPELKKPGETVKISCKASGYTFTNYGMNWVKQAPGKGLKWMGWINTNTGEPTYAEEFKGRFAFSLETSATTAYLQINNLKNEDTATYFCAREGDAMDYWGQGTSVTVSS
VL: QIVLTQSPAIMSASPGEKVTMTCSASSSVSYMHWYQQKSGTSPKRWIYDTSKLASGVPARFSGSGSGTSYSLTISSMEAEDAATYYCQQWNSYPFTFGSGTKLEIK
notes: mouse IgG1; also called mouse hCD27.131A
With B1 the “% of WT hCD27 binding (geo mean FITC)” value (W90A) was 102%, the “% of WT hCD27 binding (geo mean FITC)” value (G89A) was 82.9% and the “% of WT hCD27 binding (geo mean FITC)” value (K17A) was 126%. The “% of WT hCD27 binding (geo mean FITC)” value (S63A) was 141%, the “% of WT hCD27 binding (geo mean FITC)” value (K38A) was 11.8% and the “% of WT hCD27 binding (geo mean FITC)” value (P44A) was 91%. For the same molecule, the “% of WT hCD27 binding (geo mean FITC)” value (D32A) was 62.1%, the “% of WT hCD27 binding (geo mean FITC)” value (V49A) was 99.8% and the “% of WT hCD27 binding (geo mean FITC)” value (H60A) was 129%. The “% of WT hCD27 binding (geo mean FITC)” value (R93A) was 90%.
